Test results as given in the supplement of paper PMC12042874.
± gives the uncertainty stated by the source.

Test: amyloid nucleation score (Sup35N fusion, yeast selection) (log enrichment); library NNK3; higher = more nucleation; inactive = no reads after selection
Outline: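 Random libraries were run with three technical output replicates. In each, psi-negative yeast expressing Sup35N fused to peptides of 20 random codons were induced 24 hours with 100 μM copper sulfate and grown 7 days at 30°C on medium lacking adenine and uracil, and input and output plasmid inserts were Illumina-sequenced. The nucleation score is the DiMSum log enrichment of output over input reads, centred on the mode score of non-aggregating sequences, and sequences under 100 input reads were excluded.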

Amyloid nucleation score, 2.3 ± 0.086:
GNIVLMMSYILM

Amyloid nucleation score, 1.08 ± 0.13:
GTISIGSIRAVLLAFPFYAL

Amyloid nucleation score, inactive:
GNGSMVVYKSARVNLLSGIT
GNLLMYHGIWGTNALEDRYL
GNMKNHTMQFAEVVDGDFTM
GNNVTHSRDRCSMWYWVHLL
GNSASLEEVVLMEEGGVLCA
GNYSREVRKNVYPETGVRQM
GPLFRLRMFL
GPLSHRN
GPSSMINNVDLSCFSF
GQHSRSLDTSACCPT
GQNPSLRLVKESGF
GQNSRPGLANTLLYPEVLIR
GQVLNCVRNRIRIAVKRRGG
GRCMEGS
GRCRITKSLGGSSQTNGYWV
GRGNAGPCTSNRWDDFWEKK
GRGTYGSNPYRGLDIYRYDG
GRHNKCMVDLVEDFQLASIW
GRLSTAICFCGTMPSRWGFS
GRPICNYCRYVVVSVSMRRQ
GRRMSNLEKPVLLDIKANFL
GRWMMWFIEFYNGRQESWGN
GSCWLDVCQDCKSFSILS
GSGHAVIEVIRRFCSEDDNK
GSLCLSGKKIVFLHMNEAMG
GSLYFSCINPM
GSNQMPDPPHWPRDYNAEKR
GSQYNSFSK
GSRVLKAWGSLSLILTSYDG
GSSCRRINTEYSLAAYQSYE
GSSIEPDWL
GSSRQNY
GSSRRKKLTV
GSTTWYDLMIYLDME
GSVTEGFVGLG
GSVVTQGCGNLTLEAA
GSVYETNDTELLRVTLR
GSYSGM
GTALLRFGIVGPNDLVRLCC
GTEDWPNHGKKTLAINYLCP
GTMVSEIDWVRLTYTGYSE
GTNWCGIFLNFLLFVML
GTRIFSRDVISSGFQGSICL
GTTRATPSGPLCMNGKENVV
GTYLKNF
GVCGVLGFYFDPIITSL
GVCRVVRSNHCMLWFRLDSS
GVEMHVFWDLA
GVFGESS
GVGSRG
GVHDRLTVSRFCLGVNGDGV
GVKTHGIAVMKVGLRRLCQG
GVLEAFLTDIIPMYGYVRVA

Amyloid nucleation score, 2.33 ± 0.071:
GQSNMFCNWTFANVKRCNL

Amyloid nucleation score, 0.717 ± 0.12:
GSFAGCMGCLCYILVCSVYR

Amyloid nucleation score, -0.754 ± 1.3:
GPSPDPNRLP

Amyloid nucleation score, 0.195 ± 0.38:
GTQLFFYMMCARFKDNL

Amyloid nucleation score, 1.73 ± 0.092:
GPWGSNNMQICTYFQNLFIA

Amyloid nucleation score, 0.261 ± 0.47:
GNMQVRYRIESANNRMGQRE

Amyloid nucleation score, 1.05 ± 0.12:
GTYCFINLTTRTGDRKGRHA

Amyloid nucleation score, 0.407 ± 0.18:
GPQYWCVTRNNYYGSFYEVS

Amyloid nucleation score, 0.053 ± 0.51:
GPMWQLAVTCACSDNRMWTK

Amyloid nucleation score, 1.98 ± 0.071:
GNWWCNCTQYNLGMMDSALG
